In US20250340651A1 (CULLINAN MICA, published 2025):

B1: 16F10.C12 (antibody, V domains shown)
VH: EVQLQESGPGLVAPSQSLSITCTVSGFSLTAFGVNWVRQPPGKGLEWLGMIWGDGNTDYNSTLRSRLSISKDNSKSQVFLKLNSLQTDDTARYFCARETYYGNYAGLGYWGQGTLVTVSA
VL: QIVLTQSPAIMSASIGERVTMTCTASSSVSSNYLHWYQQKPRSSPKLWIYTTSNLASGVPTRFSGSGSGTSYSLTISSMEAEDAATYYCHQFHRSPFTFGSGTKLEIK
notes: Mouse monoclonal: captured on anti-mouse IgG Fc sensors
B2: 3F9.E4 (antibody, V domains shown)
VH: EVQLQESGEGLVKPGGSLKLSCAASGFTFSNYAMSWVRQTPEKRLEWVAYISPGGDYIYYADTVKGRFTISRDNARNTLYLQMSSLKSEDTAMYYCTTDRRHYGSYAMDYWGQGISVTVSS
VL: DIVMTQAAPSVPVTPGESVSISCRSSKSLLHSNGNTYLYWFLQRPGQSPQLLIYRMSNLASGVPDRFSGSGSGTAFTLRISRVEAEDVGVYYCMQHLEYPFTFGSGTKLEIK
notes: Mouse monoclonal: captured on anti-mouse IgG Fc sensors and detected with anti-mouse IgG; also called 3F9 antibody; anti-MICA/B mAb
B3: anti-MICA/B 3F9H1L3L wild type antibody (antibody, human IgG1, kappa)
heavy: not shown
light: DIVMTQSPLSLPVTPGEPASISCRSSKSLLHSNLNTYLYWFLQKPGQSPQILIYRMSNLASGVPDRFSGSGSGTAFTLKISRVEAEDVGVYYCMQHLEYPFTFGPGTKLEIKRTVAAPSVFIFPPSDEQLKSGTASVVCLLNNFYPREAKVQWKVDNALQSGNSQESVTEQDSKDSTYSLSSTLTLSKADYEKHKVYACEVTHQGLSSPVTKSFNRGEC
notes: also called CLN-619; CLN619; copies: 2 + 2
B4: anti-MICA/B 3F9H1L3L afucosylated antibody (antibody, human IgG1, kappa)
heavy: not shown
light: B3 light
modifications: afucosylated Fc N-glycan (Fc glycosylation site Asn 297, EU numbering), made with GlymaxX technology
notes: It differs only by lacking fucose on the Fc glycan; also called GLYMAXX; 3F9H1L3L GLYMAXX; copies: 2 + 2
B5: anti-MICA/B 3F9H1L3L antibody with the two heavy chain S239D and I332E mutations (antibody, human IgG1, kappa)
heavy: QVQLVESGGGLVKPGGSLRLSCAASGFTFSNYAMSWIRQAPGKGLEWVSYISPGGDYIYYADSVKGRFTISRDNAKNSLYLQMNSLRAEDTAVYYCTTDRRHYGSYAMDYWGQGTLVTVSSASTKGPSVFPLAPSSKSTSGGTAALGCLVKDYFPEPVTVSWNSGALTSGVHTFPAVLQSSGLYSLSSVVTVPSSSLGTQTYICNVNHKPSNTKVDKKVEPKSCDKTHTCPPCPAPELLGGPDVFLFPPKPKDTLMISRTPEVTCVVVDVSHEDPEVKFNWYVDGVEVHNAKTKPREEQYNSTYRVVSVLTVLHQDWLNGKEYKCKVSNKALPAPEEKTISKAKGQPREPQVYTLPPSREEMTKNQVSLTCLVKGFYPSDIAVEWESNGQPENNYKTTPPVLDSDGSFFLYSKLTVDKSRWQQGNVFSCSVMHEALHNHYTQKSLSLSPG
light: B3 light
notes: also called 3F9HIL3L S239D and I332E; CLN-619 DM; copies: 2 + 2

Columns and labels:
[1] = target: MICA antigen of Table 2 (purified 6×His-MICA*08 or 6×His-MICA*04 protein); experiment: BLI (ForteBio Octet Red96); mAb captured on anti-mouse IgG Fc sensors, 6×His-MICA in solution, 1:1 model
Experimental: Affinity kinetics was determined on a ForteBio Octet Red96 analyzer. […] Sensors were washed in assay buffer and then incubated with purified 6×His-MICA*08 or 6×His-MICA*04 proteins (100 nM), in 2-fold dilution series for 5 minutes in assay buffer to determine association kinetics of the antibody with the protein antigen. Sensors were then incubated in assay buffer for 10 minutes to determine dissociation kinetics. The resulting kinetics parameters were calculated with ForteBio analysis suite 8.0 using a 1:1 model.

[2] = target: T1, Recombinant MICA*02 protein; experiment: ELISA on coated recombinant antigen (1 µg/ml), goat anti-mouse IgG-HRP, OD 450 nm
T1 construct: Coated on ELISA plates
T1 sequence (Q29983 whole entry, species assumed, looked up): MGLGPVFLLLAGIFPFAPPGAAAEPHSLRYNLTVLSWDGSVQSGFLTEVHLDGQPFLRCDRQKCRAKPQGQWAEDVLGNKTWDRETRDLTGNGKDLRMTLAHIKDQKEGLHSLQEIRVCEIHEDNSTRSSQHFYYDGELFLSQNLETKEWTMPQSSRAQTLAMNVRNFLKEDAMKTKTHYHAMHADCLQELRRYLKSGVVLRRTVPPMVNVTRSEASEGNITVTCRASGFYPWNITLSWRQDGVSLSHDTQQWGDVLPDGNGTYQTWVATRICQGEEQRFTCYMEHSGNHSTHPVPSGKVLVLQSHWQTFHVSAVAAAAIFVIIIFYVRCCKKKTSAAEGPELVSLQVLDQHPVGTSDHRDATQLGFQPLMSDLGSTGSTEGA
Experimental: (§1) Recombinant MICA*01, MICA*02, MICA*04, MICA*08, MICA*09, and MICB proteins were diluted to 1 μg/ml in 50 mM sodium carbonate buffer, pH 9.6, and coated onto high binding 96-well microplates (Corning #9018), 100 ng in 100 μl per well. The following morning, coated ELISA plates were washed three times with TBS-Tween-20, pH 7.4 and then blocked in SuperBlock T20 Blocking Buffer (Pierce #37536). After blocking, ELISA plates were washed once with TBS-T and incubated with serially diluted anti-MICA antibody ([…]) for approximately two hours at room temperature. Following the incubation, ELISA plates were washed three times with TBS-T and then incubated with Goat anti-Mouse IgG (H+L)-HRP conjugate (ThermoFisher Scientific #626520) for 45 minutes at room temperature with shaking (˜400 rpm). After the incubation, ELISA plates were washed three times with TBS-T and incubated with Super Sensitive Liquid Substrate TMB (Sigma #T4444), 100 μl per well, until color development was sufficient. The reaction was stopped with 1N sulfuric acid, 100 μl per well. Optical density (OD) values were measured at 450 nm using a microplate reader.

[3] = target: T2, Recombinant MICA*08 protein; experiment: as above
T2 construct: Coated on ELISA plates
T2 sequence (Q29983 whole entry, species assumed, looked up): T1 sequence (Q29983 whole entry, species assumed, looked up)
Experimental: as §1

[4] = target: T3, Recombinant MICA*01 protein (Homo sapiens (Human), UniProt Q29983 24-307); experiment: as above
T3 construct: Coated on ELISA plates
T3 sequence: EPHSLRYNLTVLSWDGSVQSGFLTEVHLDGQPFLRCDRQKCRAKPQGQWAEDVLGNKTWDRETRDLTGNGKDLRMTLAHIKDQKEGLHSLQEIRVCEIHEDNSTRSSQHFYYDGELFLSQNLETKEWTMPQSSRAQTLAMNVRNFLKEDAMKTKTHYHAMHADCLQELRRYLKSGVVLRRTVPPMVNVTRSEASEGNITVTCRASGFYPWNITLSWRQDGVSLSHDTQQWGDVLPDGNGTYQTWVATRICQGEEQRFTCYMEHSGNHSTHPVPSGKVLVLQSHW
Experimental: as §1

Recombinant MICB protein = target: T4, Recombinant MICB protein (UniProt Q29980 23-298, limits assumed); experiment: as above
T4 construct: Coated on ELISA plates
T4 sequence (looked up): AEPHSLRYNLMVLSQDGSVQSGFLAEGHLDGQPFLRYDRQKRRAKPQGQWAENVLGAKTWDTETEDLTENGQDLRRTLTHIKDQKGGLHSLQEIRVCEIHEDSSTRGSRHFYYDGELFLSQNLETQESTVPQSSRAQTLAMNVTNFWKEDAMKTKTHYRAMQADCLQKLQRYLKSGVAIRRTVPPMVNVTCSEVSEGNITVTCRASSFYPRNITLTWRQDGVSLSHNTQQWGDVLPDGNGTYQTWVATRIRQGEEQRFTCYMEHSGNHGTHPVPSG
Experimental: as §1

[5] = target: T5, Recombinant MICA*04 protein; experiment: as above
T5 construct: Coated on ELISA plates
T5 sequence (Q29983 whole entry, species assumed, looked up): T1 sequence (Q29983 whole entry, species assumed, looked up)
Experimental: as §1

[6] = target: T6, Recombinant MICA*09 protein; experiment: as above
T6 construct: Coated on ELISA plates
T6 sequence (Q29983 whole entry, species assumed, looked up): T1 sequence (Q29983 whole entry, species assumed, looked up)
Experimental: as §1

human FcRn = human FcRn (human, UniProt P55899 24-297; P61769 21-119, limits assumed); experiment: Biacore (SPR), steady state analysis, pH 6.0; Relative Binding +++
human FcRn, sequence (P55899 24-297 limits assumed, chain 1 of 2): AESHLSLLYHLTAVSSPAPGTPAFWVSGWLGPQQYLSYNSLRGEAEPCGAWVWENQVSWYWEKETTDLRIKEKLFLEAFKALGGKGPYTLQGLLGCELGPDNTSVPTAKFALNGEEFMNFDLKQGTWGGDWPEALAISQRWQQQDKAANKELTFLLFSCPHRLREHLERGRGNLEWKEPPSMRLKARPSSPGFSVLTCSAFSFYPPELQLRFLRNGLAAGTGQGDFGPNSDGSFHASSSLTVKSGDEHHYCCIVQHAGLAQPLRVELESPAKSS
human FcRn, sequence (P61769 21-119 limits assumed, chain 2 of 2): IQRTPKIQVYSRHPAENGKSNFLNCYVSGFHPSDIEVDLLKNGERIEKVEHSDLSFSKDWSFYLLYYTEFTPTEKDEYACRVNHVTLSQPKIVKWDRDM

human FcγRI = target: T7, human FcγRI (human, UniProt P12314 16-288, limits assumed); experiment: Biacore (SPR), receptor loaded on the chip, antibody 0.411 to 33.33 nM as analyte, 1:1 affinity analysis (FIG. 9)
T7 construct: Biacore partner; also called FcγR1
T7 sequence (P12314 16-288 limits assumed): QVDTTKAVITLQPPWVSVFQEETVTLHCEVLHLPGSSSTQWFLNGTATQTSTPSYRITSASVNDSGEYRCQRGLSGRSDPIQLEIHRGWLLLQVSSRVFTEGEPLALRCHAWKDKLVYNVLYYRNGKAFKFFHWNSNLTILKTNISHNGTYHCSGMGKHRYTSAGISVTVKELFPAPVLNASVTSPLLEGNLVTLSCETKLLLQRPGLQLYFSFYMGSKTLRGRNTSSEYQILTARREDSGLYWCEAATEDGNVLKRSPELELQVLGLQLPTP

CD32B = target: T8, CD32B (human, UniProt P31994); experiment: Biacore (SPR), receptor loaded on the chip, antibody 296.3 to 24000 nM as analyte, steady state analysis (FIG. 9)
T8 construct: also called FcγRIIB
T8 sequence (receptor, looked up): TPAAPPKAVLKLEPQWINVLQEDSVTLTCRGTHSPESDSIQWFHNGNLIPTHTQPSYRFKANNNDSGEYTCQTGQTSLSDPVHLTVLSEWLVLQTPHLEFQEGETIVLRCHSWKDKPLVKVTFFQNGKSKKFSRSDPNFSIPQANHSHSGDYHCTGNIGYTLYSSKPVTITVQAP

CD32A (167His) = target: T9, CD32A (167His); experiment: as above
T9 construct: also called FcγRIIA 167His; not shown: The vendor's tag
T9 chain: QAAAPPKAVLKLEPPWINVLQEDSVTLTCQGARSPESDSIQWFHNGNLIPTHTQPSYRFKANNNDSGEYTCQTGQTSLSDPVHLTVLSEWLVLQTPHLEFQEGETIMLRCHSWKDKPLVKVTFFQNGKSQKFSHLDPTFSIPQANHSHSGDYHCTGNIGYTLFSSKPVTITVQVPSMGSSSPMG

CD16A (176 Phe) = target: T10, CD16A (176 Phe) (human, UniProt P08637); experiment: Biacore (SPR), receptor loaded on the chip, antibody as analyte, steady state analysis (FIG. 9)
T10 construct: also called FcγRIIIA 176Phe
T10 sequence (P08637 17-208 limits assumed): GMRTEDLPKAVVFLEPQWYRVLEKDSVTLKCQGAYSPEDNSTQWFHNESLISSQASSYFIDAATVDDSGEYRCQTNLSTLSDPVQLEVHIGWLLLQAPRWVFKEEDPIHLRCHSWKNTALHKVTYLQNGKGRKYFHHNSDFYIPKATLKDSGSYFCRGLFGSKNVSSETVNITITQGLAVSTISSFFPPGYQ

CD16A (176 Val) = target: T11, CD16A (176 Val) (human, UniProt P08637); experiment: as above
T11 construct: also called FcγRIIIA 176 Val
T11 sequence (P08637 17-208 F176V limits assumed): as the sequence (P08637 17-208 limits assumed) above, with F160V counted along it

Binder	Kd [1]	koff [1]	kon [1]	EC50 (read off the curve) [2]	EC50 (read off the curve) [3]	EC50 (read off the curve) [4]	EC50 (read off the curve) (Recombinant MICB protein)	EC50 (read off the curve) [5]	EC50 (read off the curve) [6]	Kd (human FcRn)	binding result (human FcγRI)	binding result (CD32B)	binding result (CD32A (167His))	binding result (CD16A (176 Phe))	binding result (CD16A (176 Val))
B1	6.45 nM	0.000548 s⁻¹	93300 M⁻¹ s⁻¹	–	–	–	–	–	–	–	–	–	–	–	–
B2	1.18 nM	0.000421 s⁻¹	383000 M⁻¹ s⁻¹	~0.03 µg/mL	~0.03 µg/mL	~0.03 µg/mL	~0.03 µg/mL	~0.03 µg/mL	~0.03 µg/mL	–	–	–	–	–	–
B3	–	–	–	–	–	–	–	–	–	489 nM	binds	binds	binds	binds	binds
B4	–	–	–	–	–	–	–	–	–	468 nM	binds	binds	binds	binds	binds
B5	–	–	–	–	–	–	–	–	–	504 nM	binds	binds	binds	binds	binds
